These substances were tested against arrestin-3 fused to Renilla luciferase (UniProt P32121) (assay: BRET arrestin-3 interaction assay). Conditions: maximal zaprinast-stimulated BRET; receptor-eYFP co-transfected with arrestin-3-Renilla luciferase; n = 3, ± SD; parent: est. 100; read off a plot.
Chain of UniProt P32121 (P32121 whole entry, the tested form may be a part): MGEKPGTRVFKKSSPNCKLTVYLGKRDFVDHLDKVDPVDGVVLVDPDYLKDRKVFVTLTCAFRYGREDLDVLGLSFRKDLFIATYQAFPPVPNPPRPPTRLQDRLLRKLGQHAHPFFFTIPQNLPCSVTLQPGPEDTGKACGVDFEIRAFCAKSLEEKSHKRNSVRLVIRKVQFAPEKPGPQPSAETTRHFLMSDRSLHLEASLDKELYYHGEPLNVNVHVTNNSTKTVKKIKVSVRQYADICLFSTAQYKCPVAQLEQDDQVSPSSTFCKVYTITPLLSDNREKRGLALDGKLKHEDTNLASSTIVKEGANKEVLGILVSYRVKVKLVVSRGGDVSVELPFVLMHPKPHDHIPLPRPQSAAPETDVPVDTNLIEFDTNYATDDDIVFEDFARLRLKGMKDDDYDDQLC
rGPR35-eYFP S286A was tested, and the percent of parent (% WT response) was 125.
In the case of “rGPR35-eYFP S286A; T290A; S291A; S292A; T293A; S297A; T300A; S302A; S304A; T306A”, the percent of parent (% WT response) is reported as 7.
Work on rGPR35-eYFP S297A; T300A yielded a percent of parent (% WT response) of 10.
In the case of rGPR35-eYFP S302A; S304A; T306A, the percent of parent (% WT response) is reported as 33.
In the case of rGPR35-eYFP T290A; S291A; S292A; T293A, the percent of parent (% WT response) is reported as 83.

From paper PMC8892012
